The results in this text go back to PMC3057972, “BAG3 Directly Interacts with Mutated alphaB-Crystallin to Suppress Its Aggregation and Toxicity” (PLoS ONE, 2011).

Changes are numbered by the printed parent chain. Names and notes keep the numbering of the source.

B1: peptide corresponding to aa 200–213 of BAG3 (peptide, UniProt O95817 200-213, looked up)
peptide: QLPRGYISIPVIHE
notes: BAG3, human, amino acids 200–213; source: peptide, 'generated'
B2: peptide corresponding to aa 87–101 of BAG3 (peptide, UniProt O95817 87-101, looked up)
peptide: PQLRPGYIPIPVLHE
notes: BAG3, human, amino acids 87–101; source: peptide, 'generated'
B3: purified αB-crystallin wild type (from E. coli) (natural protein, human, UniProt P02511 1-175, looked up)
chain: MDIAIHHPWIRRPFFPFHSPSRLFDQFFGEHLLESDLFPTSTSLSPFYLRPPSFLRAPSWFDTGLSEMRLEKDRFSVNLDVKHFSPEELKVKVLGDVIEVHGKHEERQDEHGFISREFHRKYRIPADVDPLTITSSLSSDGVLTVNGPRKQVSGPERTIPITREEKPAVTAAPKK
notes: αB-crystallin, human, wild type; probably made as a GST fusion from pGEX-6P-1 with the GST removed (it is pulled down by GST-BAG3 on GSH beads); also called WT; source: E. coli, purified
B4: GST-αB-crystallin wild type (natural protein, human, UniProt P02511 1-175, looked up)
chain: B3 chain
notes: αB-crystallin, human, wild type, cDNA subcloned into pGEX-6P-1; also called GST-fused αB-crystallin wild type (WT); GST fusion αB-crystallin; source: E. coli BL21, purified (glutathione-Sepharose beads)
B5: GST-αB-crystallin R120G (natural protein, human, UniProt P02511 1-175, looked up)
chain: B3 chain with R120G
notes: αB-crystallin, human, mutant R120G found in myofibrillar myopathy patients, cDNA subcloned into pGEX-6P-1; also called GST R120GαB-crystallin; GST-fused αB-crystallin mutant (R120G); source: E. coli BL21, purified (glutathione-Sepharose beads)
B6: purified αB-crystallin R120G (from E. coli) (natural protein, human, UniProt P02511 1-175, looked up)
chain: B3 chain with R120G
notes: αB-crystallin, human, mutant R120G found in myofibrillar myopathy patients; probably made as a GST fusion from pGEX-6P-1 with the GST removed; also called R120G αB-crystallin; mutant (R120G); source: E. coli, purified

What all share (settings): both partners purified
Assay [1] has as its target B3. Briefly: pull-down; competition: purified GST-BAG3 incubated with purified αB-crystallin in the presence or absence of peptides aa 87–101 or 200–213 of BAG3; precipitated with GSH beads; immunoblot with anti-αB-crystallin antibody.
The target of assay [2] is T1, GST-BAG3 (human, UniProt O95817 1-575).
T1 construct: BAG3, human, cDNA subcloned into pGEX-6P-1; also called GST-fused BAG3; GST protein fused to BAG3; source: E. coli BL21, purified (glutathione-Sepharose beads)
T1 sequence (O95817 whole entry, the tested form may be a part): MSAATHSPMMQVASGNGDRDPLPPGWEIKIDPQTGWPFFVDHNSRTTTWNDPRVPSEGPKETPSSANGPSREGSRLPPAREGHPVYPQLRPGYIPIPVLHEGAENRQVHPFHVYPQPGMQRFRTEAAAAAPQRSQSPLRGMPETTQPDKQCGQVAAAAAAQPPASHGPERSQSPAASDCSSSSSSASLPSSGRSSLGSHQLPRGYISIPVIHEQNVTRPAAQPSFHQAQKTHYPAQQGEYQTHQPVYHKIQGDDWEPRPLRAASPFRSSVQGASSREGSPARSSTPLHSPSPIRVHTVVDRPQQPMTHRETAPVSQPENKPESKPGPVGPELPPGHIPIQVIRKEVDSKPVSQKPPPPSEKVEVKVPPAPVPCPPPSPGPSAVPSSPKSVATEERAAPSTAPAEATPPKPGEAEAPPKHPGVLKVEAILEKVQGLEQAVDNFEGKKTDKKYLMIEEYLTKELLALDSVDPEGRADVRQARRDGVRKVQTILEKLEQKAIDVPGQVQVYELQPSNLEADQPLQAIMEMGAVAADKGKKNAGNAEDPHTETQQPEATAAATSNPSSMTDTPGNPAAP
Described as above.

In assay [3] the target is T2, purified BAG3 (from E. coli) (human, UniProt O95817 1-575).
T2 construct: BAG3, human; probably made as GST-BAG3 from pGEX-6P-1 with the GST removed (it is pulled down by GST-αB-crystallin on glutathione beads); source: E. coli BL21, purified
T2 sequence (O95817 whole entry): as the sequence (O95817 whole entry, the tested form may be a part) above
Briefly: pull-down; purified GST-fused αB-crystallin (WT or R120G) mixed with purified BAG3, pulled down with glutathione sepharose beads; immunoblot with anti-BAG3 antibody. A general note: In western blotting, separated proteins are transferred to a membrane and probed.

Assay [4] has as its target T1, GST-BAG3. As to the kind of experiment: pull-down; purified GST-BAG3 incubated with purified αB-crystallin in immunoprecipitation buffer, precipitated with glutathione-Sepharose beads; immunoblot with anti-αB-crystallin antibody.

B1: in assay [1], the binding result is “binds”. On the same count and under the same terms, the same measure for B2: “binds”. For B3, the binding result with GST-BAG3 [2] is “binds”.

As for B4, the binding result in assay [3] is reported as “binds”. Consider B5, for which, in assay [3], the binding result was “binds”. With B6, in the assay with GST-BAG3 [4], the binding result is “binds”.
